Test results as given in IntAct's records for PubMed 25910212.

B1: Tumor necrosis factor receptor superfamily member 13B (Homo sapiens), O14836-2 (parent)
chain: MSGLGRSRRGGRSRVDQEERWSLSCRKEQGKFYDHLLRDCISCASICGQHPKQCAYFCENKLRSPVNLPPELRRQRSGEVENNSDNSGRYQGLEHRGSEASPALPGLKLSADQVALVYSTLGLCLCAVLCCFLVAVACFLKKRGDPCSCQPRSRPRQSPAKSSQDHAMEAGSPVSTSPEPVETCSFCFPECRAPTQESAVTPGTPDPTCAGRWGCHTRTTVLQPCPHIPDSGLGIVCVPAQEGGPGA
B2: Tribbles homolog 3 (Homo sapiens), Q96RU7 (parent)
chain: MRATPLAAPAGSLSRKKRLELDDNLDTERPVQKRARSGPQPRLPPCLLPLSPPTAPDRATAVATASRLGPYVLLEPEEGGRAYQALHCPTGTEYTCKVYPVQEALAVLEPYARLPPHKHVARPTEVLAGTQLLYAFFTRTHGDMHSLVRSRHRIPEPEAAVLFRQMATALAHCHQHGLVLRDLKLCRFVFADRERKKLVLENLEDSCVLTGPDDSLWDKHACPAYVGPEILSSRASYSGKAADVWSLGVALFTMLAGHYPFQDSEPVLLFGKIRRGAYALPAGLSAPARCLVRCLLRREPAERLTATGILLHPWLRQDPMPLAPTRSHLWEAAQVVPDGLGLDEAREEEGDREVVLYG
B3: Ubiquitin-protein ligase (Homo sapiens), Q05086 (parent)
chain: MEKLHQCYWKSGEPQSDDIEASRMKRAAAKHLIERYYHQLTEGCGNEACTNEFCASCPTFLRMDNNAAAIKALELYKINAKLCDPHPSKKGASSAYLENSKGAPNNSCSEIKMNKKGARIDFKDVTYLTEEKVYEILELCREREDYSPLIRVIGRVFSSAEALVQSFRKVKQHTKEELKSLQAKDEDKDEDEKEKAACSAAAMEEDSEASSSRIGDSSQGDNNLQKLGPDDVSVDIDAIRRVYTRLLSNEKIETAFLNALVYLSPNVECDLTYHNVYSRDPNYLNLFIIVMENRNLHSPEYLEMALPLFCKAMSKLPLAAQGKLIRLWSKYNADQIRRMMETFQQLITYKVISNEFNSRNLVNDDDAIVAASKCLKMVYYANVVGGEVDTNHNEEDDEEPIPESSELTLQELLGEERRNKKGPRVDPLETELGVKTLDCRKPLIPFEEFINEPLNEVLEMDKDYTFFKVETENKFSFMTCPFILNAVTKNLGLYYDNRIRMYSERRITVLYSLVQGQQLNPYLRLKVRRDHIIDDALVRLEMIAMENPADLKKQLYVEFEGEQGVDEGGVSKEFFQLVVEEIFNPDIGMFTYDESTKLFWFNPSSFETEGQFTLIGIVLGLAIYNNCILDVHFPMVVYRKLMGKKGTFRDLGDSHPVLYQSLKDLLEYEGNVEDDMMITFQISQTDLFGNPMMYDLKENGDKIPITNENRKEFVNLYSDYILNKSVEKQFKAFRRGFHMVTNESPLKYLFRPEEIELLICGSRNLDFQALEETTEYDGGYTRDSVLIREFWEIVHSFTDEQKRLFLQFTTGTDRAPVGGLGKLKMIIAKNGPDTERLPTSHTCFNVLLLPEYSSKEKLKERLLKAITYAKGFGML
partner: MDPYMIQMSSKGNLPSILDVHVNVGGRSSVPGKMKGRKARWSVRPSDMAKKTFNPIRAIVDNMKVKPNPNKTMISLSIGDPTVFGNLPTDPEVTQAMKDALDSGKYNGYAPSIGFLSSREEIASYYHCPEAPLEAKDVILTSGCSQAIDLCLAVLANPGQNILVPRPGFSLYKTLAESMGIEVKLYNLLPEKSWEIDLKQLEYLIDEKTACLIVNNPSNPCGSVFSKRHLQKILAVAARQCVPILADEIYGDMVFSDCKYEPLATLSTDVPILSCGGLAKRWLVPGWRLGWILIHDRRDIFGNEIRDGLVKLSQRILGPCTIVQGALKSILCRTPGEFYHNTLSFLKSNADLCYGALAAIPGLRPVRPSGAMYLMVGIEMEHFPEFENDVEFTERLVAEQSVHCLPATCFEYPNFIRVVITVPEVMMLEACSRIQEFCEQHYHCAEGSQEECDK
B4: Apolipoprotein D (Homo sapiens), P05090 (parent)
chain: MVMLLLLLSALAGLFGAAEGQAFHLGKCPNPPVQENFDVNKYLGRWYEIEKIPTTFENGRCIQANYSLMENGKIKVLNQELRADGTVNQIEGEATPVNLTEPAKLEVKFSWFMPSAPYWILATDYENYALVYSCTCIIQLFHVDFAWILARNPNLPPETVDSLKNILTSNNIDVKKMTVTDQVNCPKLS
partner: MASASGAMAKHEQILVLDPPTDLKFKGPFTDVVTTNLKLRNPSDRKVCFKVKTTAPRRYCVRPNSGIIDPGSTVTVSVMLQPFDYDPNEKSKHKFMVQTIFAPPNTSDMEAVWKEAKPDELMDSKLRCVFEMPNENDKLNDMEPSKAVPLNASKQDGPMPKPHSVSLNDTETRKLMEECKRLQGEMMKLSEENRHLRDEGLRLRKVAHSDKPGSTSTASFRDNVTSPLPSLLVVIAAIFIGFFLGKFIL
B5: Emerin (Homo sapiens), P50402 (parent)
chain: MDNYADLSDTELTTLLRRYNIPHGPVVGSTRRLYEKKIFEYETQRRRLSPPSSSAASSYSFSDLNSTRGDADMYDLPKKEDALLYQSKGYNDDYYEESYFTTRTYGEPESAGPSRAVRQSVTSFPDADAFHHQVHDDDLLSSSEEECKDRERPMYGRDSAYQSITHYRPVSASRSSLDLSYYPTSSSTSFMSSSSSSSSWLTRRAIRPENRAPGAGLGQDRQVPLWGQLLLFLVFVIVLFFIYHFMQAEEGNPF
partner: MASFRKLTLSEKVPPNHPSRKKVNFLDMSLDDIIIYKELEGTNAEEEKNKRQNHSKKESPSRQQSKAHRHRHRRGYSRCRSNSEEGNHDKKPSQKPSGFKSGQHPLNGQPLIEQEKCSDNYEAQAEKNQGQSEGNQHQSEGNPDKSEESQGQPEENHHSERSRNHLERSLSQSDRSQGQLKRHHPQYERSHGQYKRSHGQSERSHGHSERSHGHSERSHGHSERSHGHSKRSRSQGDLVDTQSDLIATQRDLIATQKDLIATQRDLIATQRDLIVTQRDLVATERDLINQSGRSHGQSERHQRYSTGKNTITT
B6: EGF-containing fibulin-like extracellular matrix protein 1 (Homo sapiens), Q12805 (parent)
chain: MLKALFLTMLTLALVKSQDTEETITYTQCTDGYEWDPVRQQCKDIDECDIVPDACKGGMKCVNHYGGYLCLPKTAQIIVNNEQPQQETQPAEGTSGATTGVVAASSMATSGVLPGGGFVASAAAVAGPEMQTGRNNFVIRRNPADPQRIPSNPSHRIQCAAGYEQSEHNVCQDIDECTAGTHNCRADQVCINLRGSFACQCPPGYQKRGEQCVDIDECTIPPYCHQRCVNTPGSFYCQCSPGFQLAANNYTCVDINECDASNQCAQQCYNILGSFICQCNQGYELSSDRLNCEDIDECRTSSYLCQYQCVNEPGKFSCMCPQGYQVVRSRTCQDINECETTNECREDEMCWNYHGGFRCYPRNPCQDPYILTPENRCVCPVSNAMCRELPQSIVYKYMSIRSDRSVPSDIFQIQATTIYANTINTFRIKSGNENGEFYLRQTSPVSAMLVLVKSLSGPREHIVDLEMLTVSSIGTFRTSSVLRLTIIVGPFSF
B7: Fructose-bisphosphate aldolase A (Homo sapiens), P04075-2 (parent)
chain: MARRKPEGSSFNMTHLSMAMAFSFPPVASGQLHPQLGNTQHQTELGKELATTSTMPYQYPALTPEQKKELSDIAHRIVAPGKGILAADESTGSIAKRLQSIGTENTEENRRFYRQLLLTADDRVNPCIGGVILFHETLYQKADDGRPFPQVIKSKGGVVGIKVDKGVVPLAGTNGETTTQGLDGLSERCAQYKKDGADFAKWRCVLKIGEHTPSALAIMENANVLARYASICQQNGIVPIVEPEILPDGDHDLKRCQYVTEKVLAAVYKALSDHHIYLEGTLLKPNMVTPGHACTQKFSHEEIAMATVTALRRTVPPAVTGITFLSGGQSEEEASINLNAINKCPLLKPWALTFSYGRALQASALKAWGGKKENLKAAQEEYVKRALANSLACQGKYTPSGQAGAAASESLFVSNHAY
partner: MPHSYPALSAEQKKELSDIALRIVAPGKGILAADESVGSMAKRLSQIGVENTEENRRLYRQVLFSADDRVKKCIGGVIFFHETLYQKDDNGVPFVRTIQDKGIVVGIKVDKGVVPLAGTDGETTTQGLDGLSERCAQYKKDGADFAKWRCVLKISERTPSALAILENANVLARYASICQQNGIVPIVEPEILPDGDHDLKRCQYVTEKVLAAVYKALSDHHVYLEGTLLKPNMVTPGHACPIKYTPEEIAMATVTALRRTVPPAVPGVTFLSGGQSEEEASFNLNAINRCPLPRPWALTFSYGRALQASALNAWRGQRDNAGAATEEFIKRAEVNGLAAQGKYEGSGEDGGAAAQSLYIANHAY

Variants of: B1
Conditions: with sgta_human SGTA
Target sequence in this assay (O43765 whole entry): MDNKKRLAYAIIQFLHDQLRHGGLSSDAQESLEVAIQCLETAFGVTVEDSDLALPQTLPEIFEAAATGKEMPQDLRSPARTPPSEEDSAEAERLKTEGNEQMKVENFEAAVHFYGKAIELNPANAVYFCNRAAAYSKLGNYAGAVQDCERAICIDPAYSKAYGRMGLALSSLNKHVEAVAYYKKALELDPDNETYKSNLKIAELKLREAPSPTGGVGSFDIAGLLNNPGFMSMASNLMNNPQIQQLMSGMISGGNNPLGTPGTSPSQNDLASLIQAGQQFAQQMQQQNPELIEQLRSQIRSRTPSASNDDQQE

Row | effect of a mutation on the interaction | Variant
1 | with no effect | V200F
2 | with no effect | A103T
3 | with no effect | C58R
4 | with no effect | P205L
5 | disrupting interaction strength | L125R

Variants of: B2
Conditions: with atf4_human ATF4, P18848
Chain of atf4_human ATF4, P18848 (P18848 whole entry): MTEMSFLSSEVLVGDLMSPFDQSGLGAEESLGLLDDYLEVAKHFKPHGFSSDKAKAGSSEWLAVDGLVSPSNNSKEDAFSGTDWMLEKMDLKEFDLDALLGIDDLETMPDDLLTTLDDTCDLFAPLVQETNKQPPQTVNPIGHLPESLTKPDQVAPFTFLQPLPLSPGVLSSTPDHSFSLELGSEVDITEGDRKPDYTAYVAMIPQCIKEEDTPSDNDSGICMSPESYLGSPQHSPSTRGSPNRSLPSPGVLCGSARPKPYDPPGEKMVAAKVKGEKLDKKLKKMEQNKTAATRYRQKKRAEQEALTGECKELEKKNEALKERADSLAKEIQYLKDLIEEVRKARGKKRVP

Row | effect of a mutation on the interaction | Variant
6 | with no effect | Q84R

Variants of: B2
Conditions: with mdfi_human MDFI

Row | effect of a mutation on the interaction | Variant
7 | with no effect | Q84R

Variants of: B3
Conditions: with atty_human TAT

Row | effect of a mutation on the interaction | Variant
8 | disrupting interaction strength | I827K
9 | disrupting interaction strength | S372P
10 | disrupting interaction strength | R529C

Variants of: B4
Conditions: with vapa_human VAPA

Row | effect of a mutation on the interaction | Variant
11 | with no effect | F56V

Variants of: B5
Conditions: with luzp4_human LUZP4, Q9P127

Row | effect of a mutation on the interaction | Variant
12 | with no effect | D72V
13 | with no effect | S54F
14 | with no effect | P183T
15 | with no effect | P183H

Variants of: B6
Conditions: with sgta_human SGTA
Target sequence in this assay (O43765 whole entry): as the sequence (O43765 whole entry) above

Row | effect of a mutation on the interaction | Variant
16 | with no effect | R345W

Variants of: B6
Conditions: with meox2_human MEOX2, P50222
Chain of meox2_human MEOX2, P50222 (P50222 whole entry): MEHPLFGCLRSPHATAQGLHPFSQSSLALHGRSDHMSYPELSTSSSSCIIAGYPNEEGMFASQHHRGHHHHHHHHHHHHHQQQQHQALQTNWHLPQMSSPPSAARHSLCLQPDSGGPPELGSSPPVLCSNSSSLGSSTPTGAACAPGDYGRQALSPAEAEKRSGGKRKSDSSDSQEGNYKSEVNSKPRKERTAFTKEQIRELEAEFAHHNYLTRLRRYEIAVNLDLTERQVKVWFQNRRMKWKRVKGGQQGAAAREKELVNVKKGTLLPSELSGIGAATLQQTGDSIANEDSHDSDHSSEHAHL

Row | effect of a mutation on the interaction | Variant
17 | with no effect | R345W

Variants of: B7
Conditions: with aldoc_human ALDOC

Row | effect of a mutation on the interaction | Variant
18 | disrupting interaction strength | E261K
19 | with no effect | C393Y
20 | with no effect | D183G
